# Patent publication US20160257744A1 (Genentech, published 2016)
# Changes are numbered by the printed parent chain.
# B1: B1, anti-IL4/IL5 dual specific variant of hu19C11, Fab displayed on phage (Fab, V domains shown)
# VH: EVQLVQSGAEVKKPGASVKVSCKASGYTFTDYLMHWVRQAPGQGLEWIAVIVSITGRTYYADDFKGRVTITRDTSTSTAYLELSSLRSEDTAVYYCARGGIFYGMDYWGQGTLVTVSS
# VL: DIQMTQSPSSLSASVGDRVTITCKASQSVINDAAWYQQKPGKAPKLLIYYTSHRYTGVPSRFSGSGSGTDFTLTISSLQEDFATYYCQQDYTPFPLTFGQGTKVEIKR
# notes: also called clone B1
# B2: humanized antibody 19C11 (hu19C11) wild-type Fab displayed on M13 phage (Fab, V domains shown)
# VH: B1 VH with L33S, A49V, V50W, V52N, S53T, I54E, R57E, T58P, Y59T
# VL: DIQMTQSPSSLSASVGDRVTITCKASQSVINDAAWYQQKPGKAPKLLIYYTSHRYTGVPSRFSGSGSGTDFTLTISSLQEDFATYYCQQDYTSPWTFGQGTKVEIKR
# notes: Phagemid pV0115: light chain with gD expression tag fused to its C-terminus; VH-CH1 followed by hinge piece KTHTC and M13 minor coat protein p3 (bivalent Fab display); Humanized in germline VH1 / kappa I backbone; also called hu19C11 wt; Fab-displaying phage
# B3: humanized antibody 19C11 (hu19C11) as IgG (antibody, V domains shown)
# VH: B1 VH with L33S, A49V, V50W, V52N, S53T, I54E, R57E, T58P, Y59T
# VL: B2 VL
# notes: IgG; also called the antibody as IgG
# B4: 5A as human IgG1 (antibody, V domains shown)
# VH: EVQLVQSGAEVKKPGASVKVSCKASGYTFTDYDIHWVRQAPGQGLEWIVWINTETGEPTYADDFKGRVTITRDTSTSTAYLELSSLRSEDTAVYYCAREILFYGMDYWGQGTLVTVSS
# VL: B2 VL
# B5: 5A, anti-IL5 specific variant of hu19C11, Fab displayed on phage (Fab, V domains shown)
# VH: B4 VH
# VL: B2 VL
# notes: also called clone 5A
# B6: F2, anti-IL4/IL13 dual specific variant of hu19C11, Fab displayed on phage (Fab, V domains shown)
# VH: EVQLVQSGAEVKKPGASVKVSCKASGYTFTDYSMHWVRQAPGQGLEWIGIIFYTGHTYYADDFKGRVTITRDTSTSTAYLELSSLRSEDTAVYYCARGGIFYGMDYWGQGTLVTVSS
# VL: B2 VL
# B7: E7, anti-IL4/IL5 dual specific variant of hu19C11, Fab displayed on phage (Fab, V domains shown)
# VH: EVQLVQSGAEVKKPGASVKVSCKASGYTFTDYFIHWVRQAPGQGLEWIAGIVYDATGFTTYADDFKGRVTITRDTSTSTAYLELSSLRSEDTAVYYCARGGIFYGMDYWGQGTLVTVSS
# VL: B2 VL
# notes: also called clone E7
# B8: F2 as human IgG1 (antibody, V domains shown)
# VH: B6 VH
# VL: B2 VL
# B9: E7 purified as Fab (Fab, V domains shown)
# VH: B7 VH
# VL: B2 VL
# notes: also called IL4/IL5 dual specific clone E7
# B10: F1, anti-IL4/IL13 dual specific variant of hu19C11, Fab displayed on phage (Fab, V domains shown)
# VH: B6 VH with I50V, Y53Q, T54S, H56A
# VL: B2 VL
# B11: 1C36, affinity-matured variant of E7, as IgG (antibody, V domains shown)
# VH: B7 VH with A49G, D63E, D64E
# VL: B2 VL with S93H
# B12: 1C36, affinity-matured variant of E7, purified as Fab (Fab, V domains shown)
# VH: B7 VH with A49G, D63E, D64E
# VL: B2 VL with S93H
# notes: Purified Fab for SPR
# B13: 1C.36 (Fab, V domains shown)
# VH: B7 VH with A49G, D63E, D64E
# VL: B2 VL with S93H
# notes: same clone as m16 and m18, here in the phage format
# B14: 1C.60 (Fab, V domains shown)
# VH: B7 VH with T60V
# VL: B2 VL with T92K, S93H
# notes: same clone as m17 and m19, here in the phage format
# B15: 1C60, affinity-matured variant of E7, as IgG (antibody, V domains shown)
# VH: B7 VH with T60V
# VL: B2 VL with T92K, S93H
# B16: 1C60, affinity-matured variant of E7, purified as Fab (Fab, V domains shown)
# VH: B7 VH with T60V
# VL: B2 VL with T92K, S93H
# notes: Purified Fab for SPR
# Legend:
# [1] = target: T1, interleukin 13 (IL13) (UniProt P35225 35-146, limits assumed); assay: phage ELISA: direct binding of the phage clone to antigen-coated wells (NB = no detectable binding)
# T1 sequence (P35225 35-146 limits assumed): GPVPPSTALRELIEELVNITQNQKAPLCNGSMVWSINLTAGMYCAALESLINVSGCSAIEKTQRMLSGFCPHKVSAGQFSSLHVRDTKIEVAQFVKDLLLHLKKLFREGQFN
# [2] = target: T2, interleukin 4 (IL4) (UniProt P05112 25-153); assay: phage competition ELISA: Fab-phage incubated 2 h with serial dilutions of the antigen in solution, unbound phage captured on antigen-coated wells, anti-M13-HRP; IC50 = antigen concentration inhibiting 50% of phage binding
# T2 sequence (looked up): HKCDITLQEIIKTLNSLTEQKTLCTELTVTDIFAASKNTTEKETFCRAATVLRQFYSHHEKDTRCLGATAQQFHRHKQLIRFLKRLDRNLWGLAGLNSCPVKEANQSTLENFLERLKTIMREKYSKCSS
# Experimental: (§1) Fab displaying phage was first incubated with serial dilutions of the respective antigens in solution for 2 h, unbound phage was then briefly captured by antigen coated ELISA wells and detected with anti-M13 HRP conjugate. The concentration of antigen inhibiting 50% of phage binding to antigen coated well is calculated as IC₅₀. NB denotes no detectable binding of phage clone directly to the antigens coated wells.
# [3] = target: T3, interleukin 5 (IL5) (human, UniProt P05113 20-134); assay: as above
# T3 construct: also called human IL5 (R&D Systems)
# T3 sequence (looked up): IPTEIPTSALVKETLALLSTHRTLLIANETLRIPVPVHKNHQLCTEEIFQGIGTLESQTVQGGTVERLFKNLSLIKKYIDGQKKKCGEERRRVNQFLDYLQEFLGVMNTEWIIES
# Experimental: as §1
# [4] = target: T3, interleukin 5 (IL5); assay: phage ELISA: direct binding of the phage clone to antigen-coated wells (NB = no detectable binding)
# [5] = target: T2, interleukin 4 (IL4); assay: phage ELISA, Fab-displaying phage on IL4
# Excerpt: Anti-gD antibody was directly coated on ELISA wells, whereas IL4 was captured with a non-blocking anti-IL4 antibody coated on ELISA wells.
# [6] = target: T4, BSA (bovine, UniProt P02769); assay: ELISA: human IgG1 at 250 nM on protein-coated wells, anti-Fc-HRP
# T4 construct: negative control protein; also called irrelevant protein coated on ELISA wells
# T4 sequence (P02769 25-607 limits assumed): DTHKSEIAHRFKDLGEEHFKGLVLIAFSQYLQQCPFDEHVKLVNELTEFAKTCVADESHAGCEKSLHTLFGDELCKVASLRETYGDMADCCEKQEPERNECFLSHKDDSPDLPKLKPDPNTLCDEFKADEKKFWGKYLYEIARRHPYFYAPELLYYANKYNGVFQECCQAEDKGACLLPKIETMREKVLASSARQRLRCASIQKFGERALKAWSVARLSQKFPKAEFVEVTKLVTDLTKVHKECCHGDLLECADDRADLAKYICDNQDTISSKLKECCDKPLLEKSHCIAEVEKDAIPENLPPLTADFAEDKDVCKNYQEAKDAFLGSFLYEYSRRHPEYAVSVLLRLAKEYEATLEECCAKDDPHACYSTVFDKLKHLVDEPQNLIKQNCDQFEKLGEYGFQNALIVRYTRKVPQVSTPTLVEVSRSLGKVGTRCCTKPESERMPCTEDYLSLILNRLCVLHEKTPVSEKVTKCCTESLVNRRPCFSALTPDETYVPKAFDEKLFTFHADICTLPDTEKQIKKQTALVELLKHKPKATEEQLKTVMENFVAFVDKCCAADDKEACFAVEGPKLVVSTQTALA
# [7] = target: T5, HER2 ECD; assay: as above
# T5 construct: one of the irrelevant proteins; also called irrelevant protein coated on ELISA wells
# [8] = target: T1, interleukin 13 (IL13); assay: as above
# [9] = target: T3, interleukin 5 (IL5); assay: as above
# [10] = target: T2, interleukin 4 (IL4); assay: as above
# [11] = target: T2, interleukin 4 (IL4); assay: phage ELISA: direct binding of the phage clone to antigen-coated wells (NB = no detectable binding)
# [12] = target: T1, interleukin 13 (IL13); assay: phage competition ELISA: Fab-phage incubated 2 h with serial dilutions of the antigen in solution, unbound phage captured on antigen-coated wells, anti-M13-HRP; IC50 = antigen concentration inhibiting 50% of phage binding
# Experimental: as §1
# [13] = target: T3, interleukin 5 (IL5); assay: phage competition ELISA (phage IC50), soluble IL5 against IL5-coated wells
# Experimental: as §1
# (§2) The relative affinity of each clone was assessed by phage IC₅₀ as above.
# [14] = target: T3, interleukin 5 (IL5); assay: SPR (Biacore), Fab over immobilized human IL5, 25 °C
# [15] = target: T4, BSA; assay: ELISA: IgG at 100 nM on immobilized protein, anti-IgG-HRP [panel A]
# [16] = target: T5, HER2 ECD; assay: as above
# [17] = target: T3, interleukin 5 (IL5); assay: SPR (Biacore), Fab over CM5 chip with immobilized human IL5, 25 °C
# [18] = target: T3, interleukin 5 (IL5); assay: SPR, Fab over immobilized IL5
# [19] = target: T2, interleukin 4 (IL4); assay: SPR (Biacore), Fab over CM5 chip with immobilized IL4, 25 °C
# [20] = target: T2, interleukin 4 (IL4); assay: phage competition ELISA (phage IC50), soluble IL4 against IL4-coated wells
# Experimental: as §1, §2
binder,measurement,setting,value
B1,binding result,[1],no binding
same,IC50,[2],~1000 nM
same,IC50,[3],~1000 nM
B2,binding result,[1],no binding
same,binding result,[4],no binding
same,EC50,[5],1 nM
same,IC50,[2],1.1 nM
B3,binding result,[6],no binding (tested: 250 nM)
same,binding result,[7],no binding (tested: 250 nM)
same,binding result,[8],no binding (tested: 250 nM)
same,binding result,[9],no binding (tested: 250 nM)
B4,binding result,[6],no binding (tested: 250 nM)
same,binding result,[7],no binding (tested: 250 nM)
same,binding result,[10],no binding (tested: 250 nM)
same,binding result,[8],no binding (tested: 250 nM)
B5,binding result,[11],no binding
same,binding result,[1],no binding
same,IC50,[3],~1000 nM
B6,binding result,[4],no binding
same,IC50,[2],14.8 nM
same,IC50,[12],~1000 nM
B7,IC50,[13],~1000 nM
same,binding result,[1],no binding
same,IC50,[3],~1000 nM
B8,binding result,[6],no binding (tested: 250 nM)
same,binding result,[7],no binding (tested: 250 nM)
same,binding result,[9],no binding (tested: 250 nM)
B9,Kd,[14],905 nM
B10,binding result,[4],no binding
same,IC50,[2],22.3 nM
same,IC50,[12],~1000 nM
B11,binding result,[15],no binding (tested: 100 nM)
same,binding result,[16],no binding (tested: 100 nM)
B12,koff,[17],0.000221 s⁻¹
same,kon,[17],9180 M⁻¹ s⁻¹
same,Kd,[18],24.1 nM
same,fold improvement of affinity toward IL5 against E7,[18],37 fold
same,Kd,[19],3.5 nM
same,koff,[19],0.00197 s⁻¹
same,kon,[19],557000 M⁻¹ s⁻¹
B13,IC50,[13],0.9 nM
same,IC50,[20],2.1 nM
B14,IC50,[13],3.67 nM
same,IC50,[20],1.1 nM
B15,binding result,[15],no binding (tested: 100 nM)
same,binding result,[16],no binding (tested: 100 nM)
B16,koff,[17],0.000552 s⁻¹
same,kon,[17],12400 M⁻¹ s⁻¹
same,Kd,[18],44.4 nM
same,fold improvement of affinity toward IL5 against E7,[18],20 fold
same,Kd,[19],4.9 nM
same,koff,[19],0.00342 s⁻¹
same,kon,[19],697000 M⁻¹ s⁻¹
